The results in this text go back to article PMC11480844 (2024).

B1: H2-Kb / Ed46 (parent complex)
chain 1: AQSVTQPDARVTVSEGASLQLRCKYSYFGTPYLFWYVQYPRQGLQLLLKYYPGDPVVQGVNGFEAEFSKSNSSFHLRKASVHWSDWAVYFCAVGRTGGYKVVFGSGTRLLVSP
chain 2: DSGVVQSPRHIIKEKGGRSVLTCIPISGHSNVVWYQQTLGKELKFLIQHYEKVERDKGFLPSRFSVQQFDDYHSEMNMSALELEDSAMYFCASSPRHSDYTFGSGTRLLVI
chain 3: not shown
chain 4: IQKTPQIQVYSRHPPENGKPNILNCYVTQFHPPHIEIQMLKNGKKIPKVEMSDMSFSKDWSFYILAHTEFTPTETDTYACRVKHDSMAEPKTVYWDRDM
chain 5: SIINFEKL
B2: H2-Kb / B15 (parent complex)
chain 1: QQQVRQSPQSLTVWEGETAILNCSYENSAFDYFPWYQQFPGEGPALLISILSVSDKKEDGRFTIFFNKREKKLSLHIADSQPGDSATYFCAASAASNNRLTLGKGTQVVVLP
chain 2: DSGVVQSPRHIIKEKGGRSVLTCIPISGHSNVVWYQQTLGKELKFLIQHYEKVERDKGFLPSRFSVQQFDDYHSEMNMSALELEDSAMYFCASSRRADAEQFFGPGTRLTVL
chain 3: not shown
chain 4: B1 chain 4
chain 5: SIINFEKL
Note: test concentration or dose not given here.

The variants in the first assay derive from B1. The assay can be described thus: % of reporter cells activated (NFAT-GFP), raw.
chain 5 K7P: the ratio to parent amounted to 0.349.

In the case of chain 5 K7H, the ratio to parent turned out to be 0.74.

Consider chain 5 K7V, for which the ratio to parent stood at 0.353.

As to chain 5 K7G, the ratio to parent was found to be 0.341.

In the case of chain 5 K7R, the ratio to parent worked out at 0.814.

Take chain 5 L8D: the ratio to parent is 0.618.

Take chain 5 L8S: the ratio to parent came out at 0.783.

As to chain 5 L8T, the ratio to parent was 1.01.

On to chain 5 L8N, for which the ratio to parent came out at 0.697.

With chain 5 L8H, the ratio to parent is 0.912.

Turning to chain 5 L8M, the ratio to parent was found to be 1.08.

On to chain 5 I3N, for which the ratio to parent is 0.34.

On to chain 5 N4S, for which the ratio to parent came out at 0.00601.

For the variant chain 5 N4F, the ratio to parent was 0.0192.

Consider chain 5 F5V, for which the ratio to parent was found to be 1.05.

On to chain 5 F5H, for which the ratio to parent amounted to 1.23.

Take chain 5 I2V: the ratio to parent is 1.4.

Turning to chain 5 I2S, the ratio to parent came out at 1.4.

On to chain 5 S1K, for which the ratio to parent was 0.328.

Turning to chain 5 S1M, the ratio to parent came out at 0.235.

For chain 5 S1I, the ratio to parent came out at 0.0213.

Take chain 5 S1E: the ratio to parent came to 0.174.

For chain 5 S1F, the ratio to parent is 0.018.

Consider chain 5 E6S, for which the ratio to parent was 0.249.

With chain 5 E6G, the ratio to parent came to 0.355.

In the case of chain 5 E6V, the ratio to parent was found to be 0.0112.

With chain 5 E6Q, the ratio to parent was found to be 0.475.

chain 5 E6D: the ratio to parent worked out at 1.02.

The variants in another assay derive from B2. The assay can be described thus: % of reporter cells activated (NFAT-GFP), raw.
With chain 5 N4M, the ratio to parent is 0.00683.

For the variant chain 5 N4W, the ratio to parent turned out to be 0.0638.

As to chain 5 N4K, the ratio to parent is 0.21.

On to chain 5 N4I, for which the ratio to parent turned out to be 0.194.

As to chain 5 N4F, the ratio to parent stood at 0.202.

Consider chain 5 N4E, for which the ratio to parent was 0.26.

On to chain 5 N4V, for which the ratio to parent is 0.028.

As for chain 5 N4D, the ratio to parent worked out at 0.0675.

On to chain 5 N4S, for which the ratio to parent worked out at 0.0135.

chain 5 N4A: the ratio to parent stood at 0.0258.

chain 5 N4Q: the ratio to parent amounted to 0.0132.

As to chain 5 N4L, the ratio to parent was 0.391.

As for chain 5 N4T, the ratio to parent is 0.01.

As to chain 5 N4H, the ratio to parent turned out to be 0.089.

As for chain 5 N4Y, the ratio to parent amounted to 0.151.

On to chain 5 N4G, for which the ratio to parent amounted to 0.184.

Turning to chain 5 I2D, the ratio to parent stood at 0.987.

With chain 5 I2Q, the ratio to parent was 0.85.

With chain 5 I2S, the ratio to parent is 0.959.

chain 5 I2M: the ratio to parent came to 0.89.

Turning to chain 5 I2T, the ratio to parent came to 1.02.

In the case of chain 5 I2Y, the ratio to parent was 0.764.

As to chain 5 I2R, the ratio to parent was determined as 0.972.

chain 5 I2C: the ratio to parent came to 0.934.

As to chain 5 I2V, the ratio to parent came out at 1.

With chain 5 I2E, the ratio to parent amounted to 0.915.

In the case of chain 5 I2W, the ratio to parent worked out at 0.811.

As to chain 5 I2G, the ratio to parent is 0.917.

Turning to chain 5 I2L, the ratio to parent was determined as 1.03.

chain 5 I2F: the ratio to parent turned out to be 0.882.

Regarding chain 5 I2N, the ratio to parent came out at 0.974.

On to chain 5 I2H, for which the ratio to parent stood at 0.9.

For the variant chain 5 K7D, the ratio to parent was found to be 0.117.

Consider chain 5 K7A, for which the ratio to parent worked out at 0.359.

With chain 5 K7T, the ratio to parent is 0.124.

As for chain 5 K7E, the ratio to parent is 0.0434.

For chain 5 K7R, the ratio to parent was 0.928.

Consider chain 5 K7Y, for which the ratio to parent was found to be 0.383.

Consider chain 5 K7I, for which the ratio to parent was determined as 0.0863.

Consider chain 5 K7H, for which the ratio to parent came to 0.291.

With chain 5 K7V, the ratio to parent was found to be 0.454.

In the case of chain 5 K7P, the ratio to parent stood at 0.377.

In the case of chain 5 K7N, the ratio to parent was found to be 0.27.

For chain 5 K7S, the ratio to parent worked out at 0.774.

In the case of chain 5 K7M, the ratio to parent is 0.155.

As for chain 5 K7C, the ratio to parent was found to be 0.0553.

In the case of chain 5 S1F, the ratio to parent amounted to 0.144.

Consider chain 5 S1D, for which the ratio to parent was determined as 0.898.

Turning to chain 5 S1C, the ratio to parent came out at 0.577.

Consider chain 5 S1Q, for which the ratio to parent came to 0.961.

Take chain 5 S1L: the ratio to parent came to 0.456.

On to chain 5 S1K, for which the ratio to parent worked out at 0.591.

For chain 5 S1V, the ratio to parent amounted to 0.199.

As for chain 5 S1R, the ratio to parent was found to be 1.03.

Take chain 5 S1W: the ratio to parent came out at 0.383.

Regarding chain 5 S1H, the ratio to parent worked out at 0.517.

In the case of chain 5 S1M, the ratio to parent came to 0.601.

As for chain 5 S1I, the ratio to parent was 0.115.

Take chain 5 S1N: the ratio to parent stood at 0.416.

Consider chain 5 S1Y, for which the ratio to parent worked out at 0.727.

Turning to chain 5 S1P, the ratio to parent stood at 0.545.

For the variant chain 5 S1G, the ratio to parent was found to be 0.669.

With chain 5 S1T, the ratio to parent was determined as 0.487.

On to chain 5 L8G, for which the ratio to parent amounted to 0.75.

On to chain 5 L8N, for which the ratio to parent was found to be 0.844.

As to chain 5 L8K, the ratio to parent amounted to 0.801.

Turning to chain 5 L8C, the ratio to parent came to 0.767.

With chain 5 L8P, the ratio to parent was found to be 0.75.

As to chain 5 L8R, the ratio to parent was found to be 0.904.

As for chain 5 L8M, the ratio to parent was found to be 0.955.

chain 5 L8V: the ratio to parent came out at 0.901.

For the variant chain 5 L8Q, the ratio to parent turned out to be 0.784.

On to chain 5 L8A, for which the ratio to parent worked out at 0.833.

For the variant chain 5 L8S, the ratio to parent stood at 0.802.

As to chain 5 L8H, the ratio to parent turned out to be 0.905.

With chain 5 L8F, the ratio to parent amounted to 0.907.

Take chain 5 L8E: the ratio to parent came out at 0.741.

For the variant chain 5 L8I, the ratio to parent is 0.934.

On to chain 5 L8D, for which the ratio to parent was determined as 0.692.

For the variant chain 5 I3Y, the ratio to parent stood at 0.0196.

Take chain 5 I3F: the ratio to parent was 0.0424.

With chain 5 I3A, the ratio to parent stood at 0.5.

Take chain 5 I3D: the ratio to parent was 0.503.

As to chain 5 I3L, the ratio to parent came to 0.812.

In the case of chain 5 I3Q, the ratio to parent is 0.743.

Turning to chain 5 I3P, the ratio to parent came to 0.982.

Regarding chain 5 I3M, the ratio to parent stood at 0.891.

With chain 5 I3W, the ratio to parent turned out to be 0.479.

For the variant chain 5 I3C, the ratio to parent worked out at 0.607.

Turning to chain 5 I3S, the ratio to parent is 0.601.

Take chain 5 I3T: the ratio to parent worked out at 0.273.

Consider chain 5 I3H, for which the ratio to parent is 0.491.

Regarding chain 5 I3N, the ratio to parent came to 0.0985.

In the case of chain 5 I3K, the ratio to parent amounted to 0.71.

For the variant chain 5 E6S, the ratio to parent came to 0.221.

For the variant chain 5 E6H, the ratio to parent turned out to be 0.241.

As to chain 5 E6L, the ratio to parent came out at 0.0519.

chain 5 E6I: the ratio to parent is 0.00958.

Take chain 5 E6Y: the ratio to parent amounted to 0.15.

chain 5 E6N: the ratio to parent is 0.195.

In the case of chain 5 E6V, the ratio to parent amounted to 0.0123.

On to chain 5 E6F, for which the ratio to parent is 0.13.

On to chain 5 E6D, for which the ratio to parent is 0.956.

As to chain 5 E6G, the ratio to parent turned out to be 0.491.

Take chain 5 E6A: the ratio to parent was 0.205.

Regarding chain 5 F5K, the ratio to parent was 0.698.

For the variant chain 5 F5G, the ratio to parent worked out at 0.792.

For the variant chain 5 F5L, the ratio to parent came out at 0.775.

For the variant chain 5 F5M, the ratio to parent is 0.836.

As to chain 5 F5A, the ratio to parent came out at 0.953.

As for chain 5 F5S, the ratio to parent is 0.969.

chain 5 F5T: the ratio to parent was determined as 1.03.

Take chain 5 F5P: the ratio to parent came to 0.829.

chain 5 F5I: the ratio to parent was found to be 0.818.

chain 5 F5D: the ratio to parent is 0.553.

As for chain 5 F5Y, the ratio to parent is 0.952.

As to chain 5 F5C, the ratio to parent was determined as 0.834.

In the case of chain 5 F5Q, the ratio to parent came out at 0.579.

As to chain 5 F5V, the ratio to parent was 0.999.

On to chain 5 F5W, for which the ratio to parent turned out to be 0.981.

With chain 5 F5N, the ratio to parent was 0.673.

In the case of chain 5 F5E, the ratio to parent stood at 0.531.
